Measured values reported in patent publication US20160068605A1 (Janssen / Centocor, published 2016).
Where a chain is given by its changes, count along the chain named. Names may count otherwise. “And” between values parts separate entries of the source, which are not always exact repeats. Equal values may be shown once.

B1: I3RB35 (antibody, IgG1, V domains shown)
VH: QVQLVQSGAEVKKPGSSVKVSCKASGGTFSSYAISWVRQAPGQGLEWMGGIIPIFGTANYAQKFQGRVTITADESTSTAYMELSSLRSEDTAVYYCARHLFWDAGPLDYWGQGTLVTVSS
VL: DIQMTQSPSSLSASVGDRVTITCRASQSISSYLNWYQQKPGKAPKLLIYAASSLQSGVPSRFSGSGSGTDFTLTISSLQPEDFATYYCQQYFSPPYTFGQGTKVEIK
notes: IgG1
B2: I3RB37 (antibody, IgG1, V domains shown)
VH: B1 VH with H99D, L100K, F101T, W102D, D103F, A104P, G105S, P106R
VL: B1 VL with S30A, S31T, Y32W, F92I, S93T, P94F, Y96L
notes: IgG1
B3: I3RB122 (Fab, V domains shown)
VH: B1 VH with H99D, L100K, F101T, W102D, D103F, A104P, G105S, P106R
VL: B1 VL with S30A, S31T, Y32W, F92I, S93T, P94F, Y96L
notes: also called Fab of I3RB37
B4: CD3B143 (antibody, IgG1, V domains shown)
VH: EVQLVESGGGLVQPGGSLRLSCAASGFTFNTYAMNWVRQAPGKGLEWVARIRSKYNNYATYYAASVKGRFTISRDDSKNSLYLQMNSLKTEDTAVYYCARHGNFGNSYVSWFAYWGQGTLVTVSS
VL: QAVVTQEPSLTVSPGGTVTLTCRSSTGAVTTSNYANWVQQKPGQAPRGLIGGTNKRAPGTPARFSGSLLGGKAALTLSGAQPEDEAEYYCALWYSNLWVFGGGTKLTVL
notes: IgG1 constant region with L234A, L235A, F405L; human lambda light chain constant region
B5: CD3B148 (antibody, IgG1, V domains shown)
VH: B4 VH with V5L, A64D, D76N, S80T, K89R, T90A, R100K
VL: QSVLTQPPSVSAAPGQKVTISCRSSTGAVTTSNYANWVQQLPGTAPKGLIGGTNKRAPGIPDRFSGSKSGTSATLGITGLQTGDEADYYCALWYSNLWVFGGGTKLTVL
notes: as for B4
B6: CD3B144 (antibody, IgG1, V domains shown)
VH: B4 VH
VL: B5 VL
notes: as for B4
B7: I3RB9 (antibody, IgG1, V domains shown)
VH: QVQLVQSGAEVKKPGSSVKVSCKASGGTFSSYAISWVRQAPGQGLEWMGGIIPIFGTANYAQKFQGRVTITADESTSTAYMELSSLRSEDTAVYYCARGARWFNPPENLDYWGQGTLVTVSS
VL: not shown
notes: IgG1; also called I3RB09
B8: CD3B124 (antibody, human IgG1, V domains shown)
VH: EVKLLESGGGLVQPKGSLKLSCAASGFTFNTYAMNWVRQAPGKGLEWVARIRSKYNNYATYYADSVKDRFTISRDDSQSILYLQMNNLKTEDTAMYYCVRHGNFGNSYVSWFAYWGQGTLVTVSA
VL: QAVVTQESALTTSPGETVTLTCRSSTGAVTTSNYANWVQEKPDHLFTGLIGGTNKRAPGVPARFSGSLIGDKAALTITGAQTEDEAIYFCALWYSNLWVFGGGTKLTVL
notes: Chimeric: VH and VL of SP34 with murine framework and a human IgG1 Fc; also called in-house chimeric SP34-derived antibody
B9: G11 (antibody, V domains shown)
VH: EVQLLESGGGLVQPGGSLRLSCAASGFTFSSYGMSWVRQAPGKGLEWVSGINGGGGSKYYADSVKGRFTISRDNSKNTLYLQMNSLRAEDTAVYYCAKTSAQRFDYWGQGTLVTVSS
VL: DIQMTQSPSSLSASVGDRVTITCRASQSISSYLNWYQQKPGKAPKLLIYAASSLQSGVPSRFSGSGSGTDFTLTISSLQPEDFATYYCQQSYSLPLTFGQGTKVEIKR
notes: in-house phage-derived anti-CD3 positive control with the same Fc region as the tested antibodies

Assays:
[1] = target: T1, Recombinant human CD123 SP1 ECD-His tag protein (human, UniProt P26951 20-305); experiment: SPR ProteOn, captured mAb
T1 construct: bought from R&D Systems (#301-R3/CF); biotinylated for some assays; also called rhCD123 SP1; huCD123 ECD SP1
T1 sequence: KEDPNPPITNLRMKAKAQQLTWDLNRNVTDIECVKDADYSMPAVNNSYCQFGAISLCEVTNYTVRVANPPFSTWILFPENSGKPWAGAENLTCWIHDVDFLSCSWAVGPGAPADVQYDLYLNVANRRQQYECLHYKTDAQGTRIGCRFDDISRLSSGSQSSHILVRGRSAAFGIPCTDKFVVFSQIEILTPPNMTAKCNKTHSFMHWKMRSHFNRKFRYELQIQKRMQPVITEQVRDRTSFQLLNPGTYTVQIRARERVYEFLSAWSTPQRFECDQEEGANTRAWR
Description: (§1) The biosensor surface was prepared by covalently coupling Goat anti-Human IgG (Fc) to the surface of a GLC chip (BioRad) using the manufacturer instructions for amine-coupling chemistry. […] The RU immobilized also included a goat anti-mouse Fc antibody that was added to capture other antibodies not included in the ones reported here. Since the mixture was 1:1 about 50% of these RU immobilized are expected to be goat anti-human Fc. The kinetic experiments were performed at 25° C. in running buffer (PBS pH 7.4, 0.005% P20, 3 mM EDTA). […] The reference spots (Goat anti-Human IgG (Fc)-modified surface) containing no candidate captured were used as a reference surface. Capture of mAb was followed by 3 min injection (association phase) of antigen at 40 μL/min, followed by 10 min of buffer flow (dissociation phase). […] Data was processed on the instrument software. Double reference subtraction of the data was performed by subtracting the curves generated by buffer injection from the reference-subtracted curves for analyte injections. Kinetic analysis of the data was performed using 1:1 Langmuir binding model with group fit. The result for each mAb was reported in the format of Kₐ (kon or on-rate), Kd (koff or off-rate), KD (Equilibrium dissociation constant) (Table 5).

[2] = target: T1, Recombinant human CD123 SP1 ECD-His tag …; experiment: SPR Biacore 3000, captured mAb
Description: (§2) Kinetic studies were performed at 25° C. using a Biacore 3000 (BIAcore, Inc., now part of GE Healthcare). […] Sheep anti-Human Fd specific antibody (The binding site Prod # PC075) was covalently attached to two flow cells (normally 3 and 4) of the carboxymethyl dextran coated gold surfaces (CM-5 Chip, Biacore). The carboxymethyl groups of dextran were activated with N-Ethyl-N′-(3-Dimethylaminopropyl)carbodiimide (EDC) and N-hydroxysuccinimide (NHS). The antibodies were coupled at pH 4.5 in 10 mM sodium acetate. Any remaining reactive sites on the surface were blocked by reaction with ethanolamine. […] Association data was collected for 2 min followed by 10 min of dissociation. The surface was regenerated with 30 μL of 100 mM H3PO4 100 μL/min. All samples were prepared in D-PBS containing 3 mM EDTA and 0.005% surfactant P20. Data reported is the difference in SPR signal between the flow cell containing the captured antibody or Fab and a reference cell without captured antibody or Fab. Additional instrumental contributions to the signal were removed by subtraction of the data from the blank injection from the reference-subtracted signal. Data were performed in triplicate and analyzed by fitting association and dissociation phases at all concentrations (global fit) with a 1:1 binding model using the BIAevaluation software (BIAcore, Inc.). […] Data presented is an average.

[3] = target: T2, cyno CD123 ECD displayed on pDisplay-transfected cells (cynomolgus monkey); experiment: MSD cell binding on 293F pDisplay cells; fold change over background; parental 293F cells as control
T2 construct: ECD anchored on the surface of stably transfected HEK293 cells; also called cynoCD123 SP1 cells; cynoCD123 cells
T2 chain: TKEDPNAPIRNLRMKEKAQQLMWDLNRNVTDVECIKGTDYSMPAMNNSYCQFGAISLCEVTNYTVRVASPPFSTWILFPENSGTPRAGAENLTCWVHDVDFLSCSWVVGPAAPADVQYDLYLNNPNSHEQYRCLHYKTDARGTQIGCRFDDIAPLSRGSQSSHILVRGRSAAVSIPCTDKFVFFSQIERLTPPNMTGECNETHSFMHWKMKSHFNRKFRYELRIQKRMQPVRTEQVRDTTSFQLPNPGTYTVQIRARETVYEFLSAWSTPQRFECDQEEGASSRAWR
Description: (§3) The object of the screening assay was to identify antibodies that bound to cells expressing hCD123 SP1 and SP2 as well as cross reactivity with cells expressing cynoCD123 SP1.
(§4) Cells were immobilized and phages were assayed in triplicate. […] 5000 cells per well were plated into a 384 well plate (MA6000, cat. L21XB, MSD) and allowed to adhere for 2 hr. Cells were then blocked with 20% FBS in PBS (Gibco) for 15 mins. Antibody supernatants were then added and left at RT for 1 hr. Cells were washed 3 times with PBS and a ruthenium labeled secondary antibody (Jackson Immuno Research) was then added at 1 μg/mL and incubated for 1 hr at room temperature. A further washing step was then applied and 35 μL per well of MSD Read buffer T (surfactant free) was then added and incubated for 30 min for detection. Plates were then read using Sector Imager 2400 (MSD). Data was normalized to controls and graphed using GraphPad Prism Version 5. A positive binder was determined to be a hit with a signal 3× greater than background (FIGS. 2A, B and C).

[4] = target: T3, human CD123 SP2 ECD displayed on pDisplay-transfected cells (human, UniProt P26951 101-305); experiment: as above
T3 construct: ECD anchored on the surface of stably transfected HEK293 cells; also called hCD123 SP2 cells; pDisplay CD123SP2
T3 sequence: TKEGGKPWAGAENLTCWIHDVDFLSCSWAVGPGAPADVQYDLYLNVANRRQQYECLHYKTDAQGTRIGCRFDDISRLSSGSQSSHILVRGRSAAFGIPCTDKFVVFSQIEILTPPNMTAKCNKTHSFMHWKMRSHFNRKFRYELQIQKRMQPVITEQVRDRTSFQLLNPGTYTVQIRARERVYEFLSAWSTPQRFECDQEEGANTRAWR
Description: as §3, §4

[5] = target: T1, Recombinant human CD123 SP1 ECD-His tag …; experiment: SPR Biacore 3000, captured Fab
Description: as §2

[6] = target: T4, cell-surface CD3 epsilon on primary human T cells (human, UniProt P07766 23-207); experiment: flow cytometry on primary human T cells, anti-human IgG Alexa Fluor 647; MFI
T4 construct: whole, on cells; part of the CD3/TCR complex on the cells
Description: (§5) The resulting panel of anti-CD3 antibodies was tested for binding against cell-surface CD3ε on primary human T cells. To do this, binding of antibodies from expression supernatants was visualized using a polyclonal anti-human secondary antibody and analyzed by flow cytometry. Briefly, binding of anti-CD3 antibodies to cell-surface CD3ε was assessed by flow cytometry using primary Human T lymphocytes purified by negative selection (Biological Specialty, Colmar, USA). Expression supernatants or purified antibodies were normalized to 10 μg/ml in media or FACS buffer (BD BioSciences), respectively. 2×10⁵ cells were aliquoted into wells of a 96 well round-bottomed plate (CoStar) for labeling. Antibodies in expression supernatant were added to cells and incubated for 45 min at 4° C. Following centrifugation at 1300 rpm for 3 min and removal of supernatant, 50 μL of anti-human IgG (H+L) Alexa Fluor 647 secondary antibody (Life technologies Inc.) was incubated with the cells at a final concentration of 10 μg/mL for 30 min at 4° C. away from direct light. Following washing and resuspension in 30 μL FACs buffer (BD BioSciences). Sample collection was performed on an Intellicyt HTFC system using ForeCyt software. Viable single cells were gated prior to analysis of binding using the green or red fixable live/dead dyes (Life Technologies Inc.) and forward/side scatter area and height parameters, respectively. Graphs were generated in GraphPad Prism version 5 using mean fluorescence intensity values.

[7] = target: T5, cell-surface CD3 epsilon on primary cynomolgus T cells (cynomolgus monkey, UniProt Q95LI5 22-198); experiment: flow cytometry on primary cynomolgus CD4+ T cells, anti-human IgG Alexa Fluor 647; MFI
T5 construct: whole, on cells; also called cynomolgus CD3e; Cyno T-cells
Description: as §5
Binding analysis of the anti-CD3 hits to primary cynomolgusCD4⁺ T cells was then tested in order to assess the retention of cross-reactivity. Purified CD4⁺ T cells from the peripheral blood of cynomolgus monkeys (Zen Bio, Triangle Research Park, USA were used). Assay protocols were similar to those described above.

[8] = target: T6, Recombinant human CD123 SP2 ECD protein (human, UniProt P26951 101-303); experiment: SPR ProteOn, captured mAb
T6 construct: also called rhCD123 SP2; CD123 ECD SP2
T6 sequence: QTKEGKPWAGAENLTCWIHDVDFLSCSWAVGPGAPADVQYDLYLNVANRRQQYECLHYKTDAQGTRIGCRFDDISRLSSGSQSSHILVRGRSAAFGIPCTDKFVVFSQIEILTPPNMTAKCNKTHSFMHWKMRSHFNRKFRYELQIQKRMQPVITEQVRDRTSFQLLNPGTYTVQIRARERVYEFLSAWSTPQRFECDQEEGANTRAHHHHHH
Description: as §1

T4 sequence (P07766 23-207): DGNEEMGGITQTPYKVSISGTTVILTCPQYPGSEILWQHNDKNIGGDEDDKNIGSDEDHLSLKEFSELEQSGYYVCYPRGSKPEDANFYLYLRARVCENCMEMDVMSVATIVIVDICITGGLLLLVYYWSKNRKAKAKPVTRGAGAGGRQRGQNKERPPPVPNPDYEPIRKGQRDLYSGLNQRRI
T5 sequence (Q95LI5 22-198): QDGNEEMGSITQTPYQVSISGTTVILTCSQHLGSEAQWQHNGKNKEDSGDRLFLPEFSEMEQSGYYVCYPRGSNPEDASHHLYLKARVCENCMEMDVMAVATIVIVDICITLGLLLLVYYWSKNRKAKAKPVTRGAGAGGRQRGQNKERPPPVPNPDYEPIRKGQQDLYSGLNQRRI

| Binder | Kd [1] | koff [1] | kon [1] | binding result [3] | binding result [6] | binding result [7] | other results |
| --- | --- | --- | --- | --- | --- | --- | --- |
| B1 | 2.83 nM | 0.00293 s⁻¹ | 1.04e+06 M⁻¹ s⁻¹ | binds | – | – | Kd [2]: 4.8 nM; koff [2]: 0.00258 s⁻¹; kon [2]: 540000 M⁻¹ s⁻¹ |
| B2 | 6.27 nM and 5.15 nM | 0.00669 s⁻¹ and 0.00621 s⁻¹ | 1.07e+06 M⁻¹ s⁻¹ and 1.21e+06 M⁻¹ s⁻¹ | binds | – | – | Kd [2]: 9.7 nM; koff [2]: 0.0053 s⁻¹; kon [2]: 545000 M⁻¹ s⁻¹; binding result [4]: no binding (tested: 10 µg/mL) |
| B3 | – | – | – | – | – | – | Kd [5]: 11.5 nM; koff [5]: 0.0045 s⁻¹; kon [5]: 393000 M⁻¹ s⁻¹ |
| B4 | – | – | – | – | binds | binds | – |
| B5 | – | – | – | – | – | no binding (tested: not printed) | – |
| B6 | – | – | – | – | no binding | – | – |
| B7 | 12.4 nM | 0.00843 s⁻¹ | 680000 M⁻¹ s⁻¹ | no binding (tested: 10 µg/mL) | – | – | binding result [8]: no binding (tested: 400 nM); binding result [4]: no binding (tested: 10 µg/mL) |
| B8 | – | – | – | – | – | binds | – |
| B9 | – | – | – | – | binds | – | – |
